According to the nanobody polyreactivity screen of Harvey et al. (2022):

Assay: yeast display, Sf9 membrane polyspecificity reagent, FACS + sequencing; frameworks hold sequencing errors
Outline: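 A nanobody's polyreactivity label depends on the gate it was sorted from. Yeast display cells were stained with 10% biotinylated, detergent-solubilized Sf9 membrane reagent for 1 hour at 4 °C, enriched on streptavidin microbeads and sorted by FACS. The low and high (top ~1%) gates were set on anti-HA fluorescence for expression and streptavidin fluorescence for reagent binding.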

| Sequence | polyreactivity (PSR sort gate) |
| --- | --- |
| QVQLVESGGGLVQAGGSLRLSCAASGSIFPSYAMGWYRQAPGKDRELVATLGRGGTTNYADSVKGRFTLSRDNAKNTVYIQMNSLKPEDTAVYYCNAERIWRYKDGYDYWGQGTQVTVSS | high polyreactivity |
| QVQLVQSGGGLVQAGGSLRLSCAASGSTIAYKAMGWNRQAPGKEREMLAAISWRGGSTYYADSVKGRFTISRDNAKNTVYLQMKSLKPEDTAVYYCAKVYRAYTDVVRYGYWGQGSQVTVSS | high polyreactivity |
| QVQLVESGGGLVQAGGSLRLSCAASGSIFPAYAMGWYRQAPGKERELVAAITGSGGSTYYADSVKGRFTISRDNAKNTVYLQLNSLKPEDTAVYYCAATIRQFRRYDYWGQGTQVTVSS | low polyreactivity |
| QVQLVESGGGLVQAGGSLRLSCAASGFLFRYYARGWYRQAPGKERELVADISQNGDSTYYADSVKGRFTISRDTAKITVYLQMNCLNPDDTAVYYCNADNDPWPYFDGIFSVDMDYWGQGTQVTVSS | low polyreactivity |
| QVQLVESGRGLVQAGGSLRLSCAASGRIFYVYDMGWYRQAPGKESELVAAITQSGGRTYYADSVKGRFTISRDNAKNTVYLQRNSLKPEDTAVYYCAATWLGSRNLVHITLYYWGQGTQVTVSS | low polyreactivity |
| QVQLVESGGGLVQAGGSLRLSCAASGSTFSIYGMGWYRQAPGKERELVAVITARDGSTYYADSVKGRFTISRDNAKNTVYLQMNSLKPEDTAVYYCAADIGPRYDSWGQGTQVTVSS | high polyreactivity |
| QVQLVESGGGLVQAGGSLRLSCAASGSLFGRYAMGWYRQAPGTEREFVAAISRGATNTYYADSVKGRFTISRDNAKNTVYLQMNSLKPEDTAVYYCARTQRYDYGYDYWGQGTQVTVSS | low polyreactivity |
| QVQLVESGGGLVQAGGSLRLSCAASGYTFYINATGWYRQAPGKERELVAVITWSSGSTYYADSVKGRFTISRDNAKNTVYLQMNSLKPEDTAVYYCAADVTYEDGAWTIQYDYWGQGTQVTVSS | high polyreactivity |
| QVQLVESGGGLVQAGGSLRLSSAASGRMFHFNAMGWYRQARGKERELVARITFSGGSTYYADSVKGRFTISRDNAKNTVYLQMNSLKPEDTAVYYCAVDAPPIFYEGGDYWGQGTQVTVSS | low polyreactivity |
| QVQLVESGGGLVQAGGSLRLSCAASGRIFEEYAMGWYRQAPGKERELVAAITWGGSTYYADSVKGRFTISRDNAKNTVYLQMNSLKPEDTAVYYCAALKSYYWYTPRYRGDYWGQGTQVTVSS | low polyreactivity |
| QVQLVESGGGLVQAGGSLRFSCAASGIIFYYKTMGLYRQAPGKERELVASITWSGDTTYYAYSVKGRYTISRDNAKNSVYLQMNSLKPEDTAVYYCAAACYWYPSYSSYLGMYYWGQGTKVTVSS | low polyreactivity |
| QVQLVDSGGGLVQAGGRLRLSCAPSGLTFARNAMGWYIQAPGKERELVAAISRSGGRTSYADSVKGRFTISRDIAKNTVYVQMNSLKPVDTAVYYCAARSDVYSHDYWGQGTQVTVSS | high polyreactivity |
| QVQLVESGGGLVQAGGSLRLSCAASRFIFWSYAMGWYIQAPGTEREMVAAIDMTGGSTYYADYVKGRFTISRDNAKNTVYLQMNSLKPEDTAVYYCNADGDTYAFTNSDSGFDYWGQGTQVTVSS | low polyreactivity |
| QVQLVESGGGLVQAGGSLRLSCAASGIIFGYNAMGWYRQAPGKERELVAAINQDGSSTYYADSVKGRFTISRDNAKNTVYLQMNSLKPEDTAVYYCNARGVPRQDARMGYWGQGTQVTVSS | low polyreactivity |
| QVQLVESGGGLVQAGGSLRLSCAASGRTVRVYAMGWYRQAPGKERELVAAINGGGSTNYADSVKGRFTISRDSAKNTVYLQMNSLKPEDTAVYYCNATGRRSKRIYDYWGQGTQVTVSS | high polyreactivity |
| QVQLVESGGGLVQAGGSLRLSCAASGRIRFYAMGWYIQAPGKERELVAAISSSGGSTYYADSVKGRFTISRDNAKNTVYLQMNSLKPEDTAVYYCAAAWYYLGTRAQLYDYWGQGTQVTVSS | low polyreactivity |
| QVQLVESGGCLVQAGGSLRLSCAASGLIFRGYAMGWYRQAPGKERELVATITGGGRTNYADSVKGRFTLSRDNAKNTVYLQMNSLKPEDTAVYYCNTGYYGRLRDDYWGQGTQVTVSS | high polyreactivity |
| QVQLVESGGGLVQAGGSLRLSCAASGGIFIGYAMGWYRQAPGKERELVARIRSSGGTTYYADSVKGRFTISRDNAKNTVYLQMNSLKPEDTAVYYCAKRTSSSWAYGPYYYWGQGTQVTVSS | high polyreactivity |
| QVQLVESGGGLVQAGGSLRLRCAASGSTFYIYAMGWYRPAPGKERELVARISGSGGSTYYADSVKGRFTISRDNAKNTVYLQMNSLKPEDTSVYSCAAQRRVVGRHGLSLIRYDYWGQGTQVTVSS | low polyreactivity |
| QVQLVESGGGLVQAGGSLRLSCAASGYTFSAYAMGWYRQAPGKERELVAVINRSGVRTYYADSVKGRFTISRDNAKNTVYLQMNSLKPEDTAVYYCAAPPRANLFDYWGQGTQVTVSS | high polyreactivity |
| QVQLVESGGGLVQAGGSLRLSCAASGGIIAINAMGWYRQAPGKERELVAAISWGDGITYYADSVKGRFTISRDNAKNTVDLQMNSLKPEDTAVYYCNARLLSGPGYDYWGQGTQVTVSS | low polyreactivity |
| QVQLVESGGGVVQAGGSLRLICAASGSTFYINTMGWYRPAPGKERELVAAISWTGGRTYYADSVKGRFTISRDNAKNTVYLQLNSLKPEDTAVYYCAAYYNIPDRRRVGYDYWGQGTQVTVSS | high polyreactivity |

| Sequence | polyreactivity (PSR sort gate) |
| --- | --- |
| QVQLVESGGGLVQAGGSLRLSCAAYGSTLNRNVMGWYRQAPGKERELVAVITYGVGSTYYADSVKGRFTISRDNAKNTVYLQMNSLKPEDTAVYYCNKDPLVFDYWGQGTQVTVSS | low polyreactivity |
| QVQLVESGGGLVQAGGSLRLSCAASGSTFDTYAMGWYRQAPGKERELVATITNSVGNTYYADSVKGRFTISRDNAKNTVYLQMNSLKPEDTAVYYCAAETVYILAPGYYDYDYWGQGTQVTVSS | low polyreactivity |
| QVQLVESGGGLVQAGGSLRLSCAASGSTSSPYAMGWYRQAPGKERELVAAITSGGSTNYADSVKGRFTISRDNAKNTVYLEMNSLKPEDTAVYYCATRIYGWSFGSWYKYDYRGQGTQVTVSS | low polyreactivity |
| QVQLVESGGGLVQAGGSLRLSCAASGIIFFKYGMGWYRQAPGKERELVAAITSGGSTYYADSVKGRFTISRDNAKNTVYLQMNSLKPEDTAVYYCNAQRYWRKVWEYESWGQGTQVTVSS | low polyreactivity |
| QVQLVESGGGLVQAGGSLRLSCAASGSTFQRNTMGWYRQAPGKERELVADITWSGGNTYYADSVKGRFTISRDNAKNTVYLQMNSLKPEDTAVYYCAAQNVRVGWHASTSYPCPLDYWGPGTQVTVSS | low polyreactivity |
| QVQLVKSGGGLVQAGGSLRLICAASGSIFGYNTMGWYRQAPGKERELVATITYRGGSTYYADSVKGRFTISRDNAKNTVYLQMNSLKPEDTAVYYCARRVTRYPYTTWVSAGDYWGQGTQVTVSS | high polyreactivity |
| QVQLVESGGGLVQAGGSLRLSCAASGRTFFINTMGWYRQAPGKEREFVAAITWSAGRTYYADSVKGRFTISRDNAKNTVYLQMNSLKPEDTAVYYCAAALHGHTFPFYYWGQGTLVTVSS | low polyreactivity |
| QVQLVESGGGLVQAGGSLRLSCAASGSTLFYAMGWYRQAPGKERELHAAISWSGGSTRYADSVKGRFTISRDNAKNTVYLQMNIMKPEDTAVYYCNTYTKHTGYYWKYDYWGQGTQVTVSS | low polyreactivity |
| QVQLVESGGGFVQAGGSLRLSCAASGIIVRANAMGWYRQAPGKERELVAAISSSGGSTFYADSVKGRFTISLDNAKNYVYLQMNSLNPEDTAVYYCAAGRTKFAWSEYEYWGQGTQVTVSS | low polyreactivity |
| QVQLVESGGGLVQAGGSLRLSCAASGRIVPGNVMGWYRQAPGKERELVAAISSSGGSTYYADSVKGRFTISRDNAKNTVYLQMNSLKPEDTAVYYCNVRSGGKRRYSGRVDYWGQGTQVTVSS | low polyreactivity |
| QVQLVESGGGLVQAGGSLRLSCAASGFIFQRYAMGWYRPAPGKERELVAAISWSGGSTSYADSVKGRFTISRDNAKNPVYLQMYSLKPVDTAVYYCAARRPVYRKYGDRGRWYNYWGQGTQVTVSS | high polyreactivity |
| QVQLVESGGGLVQAGGSLRLSCAASGSIFYFNAMGWYRQAPGKDRELVAAITYNGGSTRYADSVKGRFTISRDNAKNTVYLQMNSLKPEDTAVYYCAARAKYGPEDGYWGQGTQVTVSS | high polyreactivity |
| QVQLVESGGGLVQAGGSLRLSCAASGRTFDYNAMGWYRQAPGKERELVARISNGDSTYADSVKGRFTISRDNAKNTVYLQMNSLKPEDTAVYYCAARQEPGWYPDVWWEYDYWGEGTQVTVSS | low polyreactivity |
| QVQLVESGGGLVQAGGSLRLSCAASGSIFTSNAMGWYRQAPGKERELVAAISWSGTSTYYADSVKGRFTISRDNAKNTVYLQMNSLKPEDTAVYYCNADTNYWEDDYWGQGTQVTVSS | low polyreactivity |
| QVQLVESGGGLVQAGGSLRLSCAASGSIFSKYAMGWYRPAPGKERELVAAIASSGGSTYYADSVKGRFTISRDNAKNTVYFQMNSLKPEDTAVYYCAAGGRSVRYNYWGQGTQVTVSS | high polyreactivity |
| QLQLVESGGGLVQAGGSLRLSSAPSGITLQYYAMGWYRQAPGKERELVAAISYRGGRTYYADSVKGRFTISRDNAKNTVYLQMNSLKPEDTAGYYCARRSSKPSSIQYYYWGQGTQVTVSS | high polyreactivity |
| QVQLVESGGGLVQAGGSLRLSCAASGRIFNVYAMGWYRQAPGKERELVASINSAGSTYYADSVKGRFTISRDNAKNTVYLQMNSLKPEDTAVYYCAADSYSVYYYTYDSWGQGTQVTVSS | low polyreactivity |
| QVQLVESGGGLVHAGGSLRLSCAASGSIFEGNGMGWYRQAPGKERELVAAITFRSGSTYNADSVKGRFTISRDNEKNTVYLPMNSLKPEDTAVYYCAADEYYQVSAYDYWGQGTQVTVSS | low polyreactivity |
| QVQLVESGGGLVQAGGSLRLSCAASGSIFVGYAMGWYRQAPGKERELVAAISKSGGSTYYADSVKGRYTISRDNAKNTVYLQMNSLKPEDTAVYYCAAYPVRLVYSQHRYQYDYWGQGTQVTVSS | high polyreactivity |
| HVQLGESGGGLVQAGGSLRLSCAASGRNFERNVMGWYRPATGKERELVAGIRSDGDRTYYADSVKGRFTISRDNSKNTVYLQLKSLKPEDTAVYYCAVVWYDKGRQTRYNYWGQGTQVTVSS | high polyreactivity |
| QVQLVESGGGLVQAGGSLRLSCAASGGTFRSNAMGWYRQAPGKERELVAAISKRGGSTHYADSVKGRFTISRDNSKNTVYLQMNSLKPEDTAVYYCNTYGWQEGDYWGQGTQVTVSS | high polyreactivity |
